According to patent US20060270591A1 (published 2006):

B4: GAL4 DBD fused Rb fragment (aa 371-928) (other)
chain: MKLLSSIEQACDICRLKKLKCSKEKPKCAKCLKNNWECRYSPKTKRSPLTRAHLTEVESRLERLEQLFLLIFPREDLDMILKMDSLQDIKALLTGLFVQDNVNKDAVTDRLASVETDMPLTLRQHRISATSSSEESSNKGQRQLTVSPHTPVRTVMNTIQQLMMILNSASDQPSENLISYFNNCTVNPKESILKRVKDIGYIFKEKFAKAVGQGCVEIGSQRYKLGVRLYYRVMESMLKSEEERLSIQNFSKLLNDNIFHMSLLACALEVVMATYSRSTSQNLDSGTDLSFPWILNVLNLKAFDFYKVIESFIKAEGNLTREMIKHLERCEHRIMESLAWLSDSPLFDLIKQSKDREGPTDHLESACPLNLPLQNNHTAADMYLSPVRSPKKKGSTTRVNSTANAETQATSAFQTQKPLKSTSLSLFYKKVYRLAYLRLNTLCERLLSEHPELEHIIWTLFQHTLQNEYELMRDRHLDQIMMCSMYGICKVKNIDLKFKIIVTAYKDLPHAVQETFKRVLIKEEEYDSIIVFYNSVFMQRLKTNILQYASTRPPTLSPIPHIPRSPYKFPSSPLRIPGGNIYISPLKSPYKISEGLPTPTKMTPRSRILVSIGESFGTSEKFQKINQMVCNSDRVLKRSAEGSNPPKPLKKLRFDIEGSDEADGSKHLPGESKFQQKLAEMTSTRTRMQKQKMNDSMDTSNKEEK

Experiments:
[1] = molecular target: B4; test: mammalian two-hybrid, DU145, CAT
[2] = molecular target: T1, GAL4 DBD fused with C-terminal fragment (aa 595-918) of wild-type AR (human, UniProt P04386 1-147 (Saccharomyces cerevisiae entry)); test: yeast two-hybrid, 10 nM DHT
T1 construct: range 1-147; also called pAS2-AR; pAS2-wtAR
Text: (§1) (B) The domains of ARA70 responsible for AR interaction by yeast two-hybrid assay. The interaction of different domains/motifs of ARA70 with wtAR assayed by plate nutritional selection in the yeast Y190 strain. […] Data were reproducible in two independent transformations.

[3] = molecular target: T2, VP16 fused AR (Example 3) (human, UniProt P10275 36-920); test: mammalian two-hybrid, DU145, pG5-Luc
T2 construct: also called VP16-AR
T2 sequence: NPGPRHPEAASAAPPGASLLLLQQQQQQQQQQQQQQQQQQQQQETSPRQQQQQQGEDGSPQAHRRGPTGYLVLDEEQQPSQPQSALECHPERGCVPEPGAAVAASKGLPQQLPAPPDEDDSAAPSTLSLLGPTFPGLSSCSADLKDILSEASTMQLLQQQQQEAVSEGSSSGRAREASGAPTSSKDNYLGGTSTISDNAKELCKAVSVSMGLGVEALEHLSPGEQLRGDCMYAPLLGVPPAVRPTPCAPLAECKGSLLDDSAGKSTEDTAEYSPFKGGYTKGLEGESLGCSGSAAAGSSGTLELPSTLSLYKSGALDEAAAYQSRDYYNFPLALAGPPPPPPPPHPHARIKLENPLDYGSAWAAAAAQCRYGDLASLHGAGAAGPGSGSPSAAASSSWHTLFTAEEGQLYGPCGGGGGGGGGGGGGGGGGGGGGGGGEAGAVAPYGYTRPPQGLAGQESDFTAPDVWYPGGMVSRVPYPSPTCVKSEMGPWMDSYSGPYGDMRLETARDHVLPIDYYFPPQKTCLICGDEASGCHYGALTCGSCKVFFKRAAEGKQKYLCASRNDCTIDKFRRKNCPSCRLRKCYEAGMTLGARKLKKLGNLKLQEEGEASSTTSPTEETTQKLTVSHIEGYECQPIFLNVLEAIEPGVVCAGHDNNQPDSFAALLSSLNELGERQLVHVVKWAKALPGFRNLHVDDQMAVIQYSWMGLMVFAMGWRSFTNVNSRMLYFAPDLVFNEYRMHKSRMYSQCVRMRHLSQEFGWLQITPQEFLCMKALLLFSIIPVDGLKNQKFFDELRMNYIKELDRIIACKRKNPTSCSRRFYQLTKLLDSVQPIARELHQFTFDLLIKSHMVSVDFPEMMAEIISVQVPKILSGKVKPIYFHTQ

[4] = molecular target: T3, VP16 fused near full-length AR (nAR, aa 36-918) (human, UniProt P10275 36-919); test: cell-based or functional assay
T3 sequence: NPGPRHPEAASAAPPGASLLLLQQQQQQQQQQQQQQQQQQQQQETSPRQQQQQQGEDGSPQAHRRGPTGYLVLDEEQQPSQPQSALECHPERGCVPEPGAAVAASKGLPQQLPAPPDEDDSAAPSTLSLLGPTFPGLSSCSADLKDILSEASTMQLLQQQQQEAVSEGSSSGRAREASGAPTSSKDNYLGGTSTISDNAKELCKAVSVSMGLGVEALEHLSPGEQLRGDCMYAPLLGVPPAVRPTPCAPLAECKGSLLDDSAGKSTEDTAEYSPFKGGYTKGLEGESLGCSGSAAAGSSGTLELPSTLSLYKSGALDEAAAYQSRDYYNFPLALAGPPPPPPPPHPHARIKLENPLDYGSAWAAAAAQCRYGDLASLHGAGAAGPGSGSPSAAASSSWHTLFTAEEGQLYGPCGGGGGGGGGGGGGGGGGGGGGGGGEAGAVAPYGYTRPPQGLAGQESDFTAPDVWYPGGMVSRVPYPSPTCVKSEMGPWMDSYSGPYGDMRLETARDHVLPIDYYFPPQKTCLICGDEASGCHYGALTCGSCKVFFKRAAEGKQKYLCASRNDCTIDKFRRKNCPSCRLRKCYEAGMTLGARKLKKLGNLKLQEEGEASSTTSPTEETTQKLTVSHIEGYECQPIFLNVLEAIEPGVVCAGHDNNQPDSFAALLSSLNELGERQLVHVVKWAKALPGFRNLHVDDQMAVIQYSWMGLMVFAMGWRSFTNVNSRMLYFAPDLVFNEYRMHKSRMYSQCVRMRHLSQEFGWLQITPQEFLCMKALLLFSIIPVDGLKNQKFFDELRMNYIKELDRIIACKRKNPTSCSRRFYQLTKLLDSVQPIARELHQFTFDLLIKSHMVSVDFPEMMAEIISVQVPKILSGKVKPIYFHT

[5] = molecular target: T1, GAL4 DBD fused with C-terminal fragment …; test: yeast two-hybrid, plate nutritional selection
Text: as §1

[6] = molecular target: pGAL0-AR: GAL4 DBD (a.a. 1-147) fused to hinge and LBD of wtAR (human, UniProt P04386 1-147 (Saccharomyces cerevisiae entry)); test: cell-based or functional assay

B1: VP16 fused AR-LBD (aa 590-918) (receptor)
chain: KQKYLCASRNDCTIDKFRRKNCPSCRLRKCYEAGMTLGARKLKKLGNLKLQEEGEASSTTSPTEETTQKLTVSHIEGYECQPIFLNVLEAIEPGVVCAGHDNNQPDSFAALLSSLNELGERQLVHVVKWAKALPGFRNLHVDDQMAVIQYSWMGLMVFAMGWRSFTNVNSRMLYFAPDLVFNEYRMHKSRMYSQCVRMRHLSQEFGWLQITPQEFLCMKALLLFSIIPVDGLKNQKFFDELRMNYIKELDRIIACKRKNPTSCSRRFYQLTKLLDSVQPIARELHQFTFDLLIKSHMVSVDFPEMMAEIISVQVPKILSGKVKPIYFHT
notes: also called pCMX-VP16-AR
[1]
  binding result: no binding

## QQLYSLLGQF (peptide, not shown: large carriers, also called ARA70 LXXLL (aa 90 to 99)) [GALAD70-LXXLL: GAL4AD fused ARA70 aa 90-99]
[2]
  binding result: no binding

B2: GAL4 DBD fused ARA70-N1 (aa 1-175) (other)
chain: MKLLSSIEQACDICRLKKLKCSKEKPKCAKCLKNNWECRYSPKTKRSPLTRAHLTEVESRLERLEQLFLLIFPREDLDMILKMDSLQDIKALLTGLFVQDNVNKDAVTDRLASVETDMPLTLRQHRISATSSSEESSNKGQRQLTVSMNTFQDQSGSSSNREPLLRCSDARRDLELAIGGVLRAEQQIKDNLREVKAQIHSCISRHLECLRSREVWLYEQVDLIYQLKEETLQQQAQQLYSLLGQFNCLTHQLECTQNKDLANQVSVCLERLGSLTLKPEDSTVLLFEADTITLRQTITTFGSLKTIQIPEHLMAHASSANI
notes: Mammalian two-hybrid
[3]
  binding result: no binding

B3: GALAD70-N1: GAL4AD fused ARA70 aa 1-175 (other, not shown: large carriers)
chain: MNTFQDQSGSSSNREPLLRCSDARRDLELAIGGVLRAEQQIKDNLREVKAQIHSCISRHLECLRSREVWLYEQVDLIYQLKEETLQQQAQQLYSLLGQFNCLTHQLECTQNKDLANQVSVCLERLGSLTLKPEDSTVLLFEADTITLRQTITTFGSLKTIQIPEHLMAHASSANI
notes: also called ARA70-N1
[2]
  binding result: no binding

## B4
[4]
  CAT activity, mammalian two-hybrid system, DU145 cells: 3 fold

B5: GALAD70-N: GAL4AD fused ARA70 aa 1-401 (other, not shown: large carriers)
chain: MNTFQDQSGSSSNREPLLRCSDARRDLELAIGGVLRAEQQIKDNLREVKAQIHSCISRHLECLRSREVWLYEQVDLIYQLKEETLQQQAQQLYSLLGQFNCLTHQLECTQNKDLANQVSVCLERLGSLTLKPEDSTVLLFEADTITLRQTITTFGSLKTIQIPEHLMAHASSANIGPFLEKRGCISMPEQKSASGIVAVPFSEWLLGSKPASGYQAPYIPSTDPQDWLTQKQTLENSQTSSRACNFFNNVGGNLKGLENWLLKSEKSSYQKCNSHSTTSSFSIEMEKVGDQELPDQDEMDLSDWLVTPQESHKLRKPENGSRETSEKFKLLFQSYNVNDWLVKTDSCTNCQGNQPKGVEIENLGNLKCLNDHLEAKKPLSTPSMVTEDWLVQNHQDPCKVE
notes: the legend says GAL4AD fusions; also called ARA70N peptide (aa 1 to 401); ARA70-N
[5]
  binding result: binds

B6: GAL4 DBD fused ARA70-C (aa 383-614) (other)
chain: MKLLSSIEQACDICRLKKLKCSKEKPKCAKCLKNNWECRYSPKTKRSPLTRAHLTEVESRLERLEQLFLLIFPREDLDMILKMDSLQDIKALLTGLFVQDNVNKDAVTDRLASVETDMPLTLRQHRISATSSSEESSNKGQRQLTVSSMVTEDWLVQNHQDPCKVEEVCRANEPCTSFAECVCDENCEKEALYKWLLKKEGKDKNGMPVEPKPEPEKHKDSLNMWLCPRKEVIEQTKAPKAMTPSRIADSFQVIKNSPLSEWLIRPPYKEGSPKEVPGTEDRAGKQKFKSPMNTSWCSFNTADWVLPGKKMGNLSQLSSGEDKWLLRKKAQEVLLNSPLQEEHNFPPDHYGLPAVCDLFACMQLKVDKEKWLYRTPLQM
notes: Mammalian two-hybrid
[3]
  binding result: no binding

B7: GALAD70-C: GAL4AD fused ARA70 aa 383-614 (other, not shown: large carriers)
chain: SMVTEDWLVQNHQDPCKVEEVCRANEPCTSFAECVCDENCEKEALYKWLLKKEGKDKNGMPVEPKPEPEKHKDSLNMWLCPRKEVIEQTKAPKAMTPSRIADSFQVIKNSPLSEWLIRPPYKEGSPKEVPGTEDRAGKQKFKSPMNTSWCSFNTADWVLPGKKMGNLSQLSSGEDKWLLRKKAQEVLLNSPLQEEHNFPPDHYGLPAVCDLFACMQLKVDKEKWLYRTPLQM
notes: also called ARA70-C (aa 383-614)
[2]
  binding result: no binding

B8: GALAD70-N2: GAL4AD fused ARA70 aa 176-401 (other, not shown: large carriers)
chain: GPFLEKRGCISMPEQKSASGIVAVPFSEWLLGSKPASGYQAPYIPSTDPQDWLTQKQTLENSQTSSRACNFFNNVGGNLKGLENWLLKSEKSSYQKCNSHSTTSSFSIEMEKVGDQELPDQDEMDLSDWLVTPQESHKLRKPENGSRETSEKFKLLFQSYNVNDWLVKTDSCTNCQGNQPKGVEIENLGNLKCLNDHLEAKKPLSTPSMVTEDWLVQNHQDPCKVE
notes: also called ARA70-N2 peptide (aa 176 to 401); ARA70-N2
[5]
  binding result: binds

B9: ARA70 (mammalian two-hybrid construct of Example 1) (other)
chain: MNTFQDQSGSSSNREPLLRCSDARRDLELAIGGVLRAEQQIKDNLREVKAQIHSCISRHLECLRSREVWLYEQVDLIYQLKEETLQQQAQQLYSLLGQFNCLTHQLECTQNKDLANQVSVCLERLGSLTLKPEDSTVLLFEADTITLRQTITTFGSLKTIQIPEHLMAHASSANIGPFLEKRGCISMPEQKSASGIVAVPFSEWLLGSKPASGYQAPYIPSTDPQDWLTQKQTLENSQTSSRACNFFNNVGGNLKGLENWLLKSEKSSYQKCNSHSTTSSFSIEMEKVGDQELPDQDEMDLSDWLVTPQESHKLRKPENGSRETSEKFKLLFQSYNVNDWLVKTDSCTNCQGNQPKGVEIENLGNLKCLNDHLEAKKPLSTPSMVTEDWLVQNHQDPCKVEEVCRANEPCTSFAECVCDENCEKEALYKWLLKKEGKDKNGMPVEPKPEPEKHKDSLNMWLCPRKEVIEQTKAPKAMTPSRIADSFQVIKNSPLSEWLIRPPYKEGSPKEVPGTEDRAGKQKFKSPMNTSWCSFNTADWVLPGKKMGNLSQLSSGEDKWLLRKKAQEVLLNSPLQEEHNFPPDHYGLPAVCDLFACMQLKVDKEKWLYRTPLQM
notes: pGAL4-VP16 was used to construct a fusion of ARA70; limits and fusion partner not clearly stated
[1]
  binding result: no binding
[6]
  CAT activity, mammalian two-hybrid assay: 12 fold
